According to IntAct's records for PubMed 18068675:

B1: Neurovirulence factor ICP34.5 (Human herpesvirus 1 (strain 17) (HHV-1)), P36313 (parent)
chain: MARRRRHRGPRRPRPPGPTGAVPTAQSQVTSTPNSEPAVRSAPAAAPPPPPAGGPPPSCSLLLRQWLHVPESASDDDDDDDWPDSPPPEPAPEARPTAAAPRPRPPPPGVGPGGGADPSHPPSRPFRLPPRLALRLRVTAEHLARLRLRRAGGEGAPEPPATPATPATPATPATPARVRFSPHVRVRHLVVWASAARLARRGSWARERADRARFRRRVAEAEAVIGPCLGPEARARALARGAGPANSV

Variants of: B1
Settings: with pp1a_human PPP1CA

Row | Variant | effect of a mutation on the interaction
1 | R236D | decreasing interaction

Variants of: B1
Settings: with pp1a_human PPP1CA
Remark: another data set of the same source

Row | Variant | effect of a mutation on the interaction
2 | R234E | decreasing interaction

Variants of: B1
Settings: with pp1a_human PPP1CA
Remark: another data set of the same source

Row | Variant | effect of a mutation on the interaction
3 | V178E;F180L | decreasing interaction

Variants of: B1
Settings: with pp1a_human PPP1CA
Remark: another data set of the same source

Row | Variant | effect of a mutation on the interaction
4 | V178E;F180L | disrupting interaction
